# According to patent US20260200999A1, “SYNTHETIC TRANSCRIPTION FACTORS” (ETH ZURICH, priority 2022, published 2026):
# “Also recorded” adds a separate entry of the source.
# T1: MTF (MTERF1 58-399::RelA 430-551) (Homo sapiens, UniProt Q99551 SEQ:2-343)
# T1 chain: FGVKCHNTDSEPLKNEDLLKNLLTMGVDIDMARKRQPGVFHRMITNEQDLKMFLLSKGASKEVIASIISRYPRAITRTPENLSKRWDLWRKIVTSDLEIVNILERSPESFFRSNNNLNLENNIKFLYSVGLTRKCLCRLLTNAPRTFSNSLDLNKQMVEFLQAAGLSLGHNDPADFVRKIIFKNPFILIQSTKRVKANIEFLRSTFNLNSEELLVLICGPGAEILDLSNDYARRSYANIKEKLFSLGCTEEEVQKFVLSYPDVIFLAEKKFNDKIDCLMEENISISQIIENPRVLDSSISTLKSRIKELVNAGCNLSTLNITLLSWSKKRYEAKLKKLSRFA
# T2: MTERF1 58-399::2xTA1 (Homo sapiens, UniProt Q99551 SEQ:1-342)
# T2 chain: T1 chain
# T3: MTERF1 58-399::2xFoxoTAD (Homo sapiens, UniProt Q99551 SEQ:1-342)
# T3 chain: T1 chain
# T4: MTERF1 58-399::FoxoTAD-LMSTEN-TA1 (Homo sapiens, UniProt Q99551 SEQ:1-342)
# T4 chain: T1 chain
# T5: MTERF1 58-399::LMSTEN (Homo sapiens, UniProt Q99551 SEQ:1-342)
# T5 chain: T1 chain
# T6: MTERF1 58-399::FoxoTAD (Homo sapiens, UniProt Q99551 SEQ:1-342)
# T6 chain: T1 chain
# B1: sense-5-8-10 promoter (dsDNA)
# DNA 1: TAAGATGGCAGAGCCCGGTAATAGAGTGCGTAAGATGGCAGAGCCCGGTAATAGAGTGCGTAAGATGGCAGAGCCCGGTAATAGAGTGCGTAAGATGGCAGAGCCCGGTAATAGAGTGCGTAAGATGGCAGAGCCCGGTAATGACTCATATGCTCTAGAGGGTATATAATGGGGGCC
# DNA 2: GGCCCCCATTATATACCCTCTAGAGCATATGAGTCATTACCGGGCTCTGCCATCTTACGCACTCTATTACCGGGCTCTGCCATCTTACGCACTCTATTACCGGGCTCTGCCATCTTACGCACTCTATTACCGGGCTCTGCCATCTTACGCACTCTATTACCGGGCTCTGCCATCTTA
# B2: 5xRE, 0 bp spacing (dsDNA)
# DNA 1: TAAGATGGCAGAGCCCGGTAATTAAGATGGCAGAGCCCGGTAATTAAGATGGCAGAGCCCGGTAATTAAGATGGCAGAGCCCGGTAATTAAGATGGCAGAGCCCGGTAAT
# DNA 2: ATTACCGGGCTCTGCCATCTTAATTACCGGGCTCTGCCATCTTAATTACCGGGCTCTGCCATCTTAATTACCGGGCTCTGCCATCTTAATTACCGGGCTCTGCCATCTTA
# B3: MTF: fusion of human MTERF1 amino acids 58-399 to RELA amino acids 430-551; prototype HumTAP synthetic transcription factor (protein)
# chain: MFGVKCHNTDSEPLKNEDLLKNLLTMGVDIDMARKRQPGVFHRMITNEQDLKMFLLSKGASKEVIASIISRYPRAITRTPENLSKRWDLWRKIVTSDLEIVNILERSPESFFRSNNNLNLENNIKFLYSVGLTRKCLCRLLTNAPRTFSNSLDLNKQMVEFLQAAGLSLGHNDPADFVRKIIFKNPFILIQSTKRVKANIEFLRSTFNLNSEELLVLICGPGAEILDLSNDYARRSYANIKEKLFSLGCTEEEVQKFVLSYPDVIFLAEKKFNDKIDCLMEENISISQIIENPRVLDSSISTLKSRIKELVNAGCNLSTLNITLLSWSKKRYEAKLKKLSRFAQAGEGTLSEALLQLQFDDEDLGALLGNSTDPAVFTDLASVDNSEFQQLLNQGIPVAPHTTEPMLMEYPEAITRLVTGAQRPPDPAPAPLGAPGLPNGLLSGDEDFSSIADMDFSALLSQISS
# B4: WT MTERF1: human MTERF1, Uniprot Q99551, including the mitochondrial transfer peptide (protein, listed as Homo sapiens)
# chain: MQSLSLGQTSISKGLNYLTIMAPGNLWHMRNNFLFGSRCWMTRFSAENIFKSVSFRLFGVKCHNTDSEPLKNEDLLKNLLTMGVDIDMARKRQPGVFHRMITNEQDLKMFLLSKGASKEVIASIISRYPRAITRTPENLSKRWDLWRKIVTSDLEIVNILERSPESFFRSNNNLNLENNIKFLYSVGLTRKCLCRLLTNAPRTFSNSLDLNKQMVEFLQAAGLSLGHNDPADFVRKIIFKNPFILIQSTKRVKANIEFLRSTFNLNSEELLVLICGPGAEILDLSNDYARRSYANIKEKLFSLGCTEEEVQKFVLSYPDVIFLAEKKFNDKIDCLMEENISISQIIENPRVLDSSISTLKSRIKELVNAGCNLSTLNITLLSWSKKRYEAKLKKLSRFA
# How the values were obtained:
# [1] = upon ingestion; cited from earlier work
# [2] = molecular target: T7, FKBP (SEQ ID NO: 142) and FRBT2098L (SEQ ID NO: 140) heterodimerization (Homo sapiens, UniProt P42345+P62942+Q04206, T2098L); assay: A/C heterodimerizer-inducible HumTAP gene expression system in HEK293 cells; format: cell-based
# T7 construct: expressed in transfected cells; host or cells: HEK293
# Description: One well-characterized small-molecule based dimerization system is based on the rapamycin analog A/C (C16-(S)-7-methylindolerapamycin) that induces heterodimerization between the human proteins FK506-binding protein 12 (FKBP; SEQ ID NO: 142) and the FKBP12-rapamycin binding domain (FRB) mutant FRBT2098L (SEQ ID NO: 140), [31]. To achieve A/C heterodimerizer-inducible gene expression, the inventors fused FKBP (SEQ ID NO: 142) to the N-terminus of MTERF158-399 (SEQ ID NO: 1) and FRB (SEQ ID NO: 140) to the C-terminus of different transactivation domains (FIG. 10A). […] In accordance with the results described above, chimeric transactivation domains mediated higher maximal output expression levels than RelA430-551.
# The inventors reasoned that in the present system, dimerization might be hindered by either FRB's or FKBP's fusion partner and investigated whether the addition of linkers between the protein domains might impact the EC50 value (FIG. 10 D). A combination of the cMyc nuclear localization signal (NLS) (SEQ ID NO: 122) linking MTERF158-399 and FKBP, and the rigid linker AP6 (SEQ ID NO: 120) linking FRB and RelA430-551 led to a reduction in EC50 to ~60 nM while also increasing maximal output ~3-fold over the variant without linkers and RelA430-551 as TAD (FIG. 10 D).
# [3] = molecular target: FRB and FKBP dimerization (Homo sapiens, UniProt P42345+P62942, T2098L); conditions: previously reported A/C-inducible FRB and FKBP systems [31], [33]; cited from earlier work
# [4] = molecular target: T1, MTF (MTERF1 58-399::RelA 430-551); assay: cell_activity; mCitrine, HEK293; none without MTF; conditions: tags: RelA 430-551 TAD fusion
# Description: The inventors next sought to facilitate potential future applications and created a collection of promoters with different strengths to match potential future applications' requirements. Randomly picking 20 variants yielded mostly weak promoters. To maximize diversity in size and strength, the inventors chose 19 further promoters based on their high activity score or small genetic size. Altogether, the inventors created a promoter collection spanning a wide range of sizes and strengths (FIG. 15A, B). After co-transfecting each variant either with or without a MTF plasmid amount corresponding to the EC90, and a mCherry transfection control plasmid into HEK293 cells, relative mCitrine levels were measured using flow cytometry. […]
# [5] = molecular target: T2, MTERF1 58-399::2xTA1; assay: cell_activity; HEK293 reporter; conditions: tags: TAD fusion
# [6] = molecular target: T3, MTERF1 58-399::2xFoxoTAD; assay: cell_activity; HEK293 reporter; conditions: tags: TAD fusion
# Description: (§1) Upon co-transfection of HEK293 cells with plasmids encoding pEF1a-driven expression of the fusion HumTAPs, a Response Element-driven mCerulean reporter protein, and a mCherry transfection control, all peptides derived from RelA except TA1 mediated high levels of reporter gene expression. Including a larger fraction of the RelA protein led to higher reporter expression. Conversely, the core transactivation domains TA1, WW, ZNF473 KRAB, and NucRecCoAct mediated little to no reporter expression.
# (§2) Similarly, two copies of FoxoTAD (SEQ ID NO: 33) mediated 20-fold more mCerulean expression than just one FoxoTAD copy and ~2-fold more than the benchmark RelA₄₃₀₋₅₅₁ TAD. This effect was not as pronounced for the LMSTEN domain for which two copies (SEQ ID NO: 196) mediated ~2.7-fold more reporter expression than one copy. Fusing FoxoTAD with LMSTEN (SEQ ID NO: 54), LMSTEN with TA1 (SEQ ID NO: 56), or FoxoTAD with TA1 (SEQ ID NO: 58) yields TADs that are at the same time smaller and stronger than the benchmark RelA₄₃₀₋₅₅₁ TAD. A chimeric TAD consisting of FoxoTAD, LMSTEN, and TA1 (SEQ ID NO: 52) yields 3.7 times the amount of reporter gene expression than RelA₄₃₀₋₅₅₁ (FIG. 9 C). It is therefore possible to engineer both stronger and smaller transactivation domains than the commonly used RelA₄₃₀₋₅₅₁ without incorporating protein domains of non-human origin. […]
# [7] = molecular target: T4, MTERF1 58-399::FoxoTAD-LMSTEN-TA1; assay: cell_activity; HEK293 reporter; conditions: tags: TAD fusion
# Description: as §1, §2
# [8] = molecular target: T5, MTERF1 58-399::LMSTEN; assay: cell_activity; HEK293 reporter; TAD effect; conditions: tags: TAD fusion
# [9] = molecular target: T6, MTERF1 58-399::FoxoTAD; assay: cell_activity; HEK293 reporter; TAD effect; conditions: tags: TAD fusion
# [10] = test system: endogenous human genes in HEK293 cells; assay: RNA-Seq differential gene expression analysis of transfected HEK293 cells versus junk plasmid (edgeR); format: cell-based; conditions: transfected HEK293 cells vs "junk" plasmid, FDR<0.5, fold-change of at least 2
# Description: The inventors therefore used RNA-Seq to investigate whether MTF (SEQ ID NO: 100) activates the expression of endogenous human genes. The inventors also transfected WT MTERF1 (SEQ ID NO: 108) to compare the gene-regulatory effects of MTERF1 to those of MTF. Differential gene expression analysis was performed against cells that were transfected with a “junk” plasmid using the edgeR software package for R [24]. […] Future investigations will assess the dose-dependency of differentially expressed (DE) genes on MTF amount and may help clarify the origin of DE genes.
# [11] = test system: Response Element-driven (SEQ ID NO: 48) mCerulean fluorescent reporter; assay: Orthogonality: MTF-driven reporter with or without WT MTERF1 co-expression; format: cell-based, human; conditions: HEK293; MTF construct plus reporter SEQ ID NO: 48, with or without EF1a-driven WT MTERF1
# Description: To assess the orthogonality of the host towards the Response Element-driven Gene of Interest (Gol), the inventors transfected a HumTAP representative MTF (SEQ ID NO: 100) with a Response Element-driven (SEQ ID NO: 48) mCerulean fluorescent reporter, with and without the construct encoding a wild-type MTERF1 to assess whether it might interfere with the induction of the Gol by MTF (FIG. 7B).
# T7 sequence (P62942 with tags, fused parts or gaps, stated change not applied): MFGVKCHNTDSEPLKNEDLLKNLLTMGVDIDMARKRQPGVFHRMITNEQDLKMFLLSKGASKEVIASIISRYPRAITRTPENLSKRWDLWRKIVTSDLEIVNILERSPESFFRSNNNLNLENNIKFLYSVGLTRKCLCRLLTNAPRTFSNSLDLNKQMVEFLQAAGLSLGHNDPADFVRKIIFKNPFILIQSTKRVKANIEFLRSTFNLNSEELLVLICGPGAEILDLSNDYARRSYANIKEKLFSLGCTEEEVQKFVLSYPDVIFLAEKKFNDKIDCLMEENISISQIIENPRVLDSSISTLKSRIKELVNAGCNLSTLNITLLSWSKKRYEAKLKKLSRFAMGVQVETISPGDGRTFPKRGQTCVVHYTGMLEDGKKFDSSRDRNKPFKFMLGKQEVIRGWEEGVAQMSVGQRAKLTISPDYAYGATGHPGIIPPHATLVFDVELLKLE
# T7 sequence (P42345+Q04206 fused P42345:T2098L): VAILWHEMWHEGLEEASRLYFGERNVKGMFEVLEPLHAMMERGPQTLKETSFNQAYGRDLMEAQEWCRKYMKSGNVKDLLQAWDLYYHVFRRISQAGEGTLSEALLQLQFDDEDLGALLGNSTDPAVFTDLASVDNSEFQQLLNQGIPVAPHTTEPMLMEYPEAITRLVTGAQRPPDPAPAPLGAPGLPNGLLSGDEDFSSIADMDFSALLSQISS
# Chain of FRB and FKBP dimerization (P62942 whole entry, the tested form may be a part): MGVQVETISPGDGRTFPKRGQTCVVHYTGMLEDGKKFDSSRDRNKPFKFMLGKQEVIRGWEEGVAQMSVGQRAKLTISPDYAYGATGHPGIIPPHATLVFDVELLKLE
# Chain of FRB and FKBP dimerization (P42345 2012-2144 T2098L): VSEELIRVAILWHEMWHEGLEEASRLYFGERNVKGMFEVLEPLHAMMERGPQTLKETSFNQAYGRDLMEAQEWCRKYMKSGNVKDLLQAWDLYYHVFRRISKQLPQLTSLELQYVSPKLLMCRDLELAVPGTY
molecule,measurement,setting,value
CO[C@H]1C[C@@H]2CC[C@@H](C)[C@@](O)(O2)C(=O)C(=O)N2CCCC[C@H]2C(=O)O[C@H]([C@H](C)C[C@@H]2CC[C@@H](O)[C@H](OC)C2)CC(=O)[C@H](C)/C=C(\C)[C@@H](O)[C@@H](OC)C(=O)[C@H](C)C[C@H](C)/C=C/C=C/C=C/1C [rapamycin],physiological blood concentrations,[1],~ 22 nM
C16-(S)-7-methylindolerapamycin [A/C heterodimerizer],mCerulean levels versus inducer concentration,"[2]; HEK cells co-transfected with MTERF158-399::FKBP and FRB fusions to the strongest TADs, FIG. 10C",increased dose-dependently
same,EC50,"[2]; cMyc NLS linking MTERF158-399 and FKBP, AP6 linker linking FRB and RelA430-551, FIG. 10D",~60 nM
same,EC50,[3],~1 nM
B1,binding signal,[4],2 fold vs sense-5-9-8
B2,binding signal,[5],201 fold vs one TA1 copy
same,binding signal,[6],~2 fold vs MTF
same,binding signal,[7],3.7 fold vs MTF
same,binding signal,[8],11.3 fold lower than MTF
same,binding signal,[9],8.4 fold lower than MTF
B3,"DE genes, Regulation Up (up-regulated gene, Symbol)",[10],Novel Transcript; also recorded: USP17L2; also recorded: HSPA7; also recorded: ADGRA1
same,Gol fluorescence levels with or without concomitant WT MTERF1 expression,[11],no difference in Gol fluorescence levels
B4,"DE genes, Regulation Up (up-regulated gene, Symbol)",[10],GDF15; also recorded: TRPV6; also recorded: HSPA7
